T1: recombinant human GPC5 (rhGPC5) (human, UniProt P78333 25-551, limits assumed)
T1 sequence (looked up): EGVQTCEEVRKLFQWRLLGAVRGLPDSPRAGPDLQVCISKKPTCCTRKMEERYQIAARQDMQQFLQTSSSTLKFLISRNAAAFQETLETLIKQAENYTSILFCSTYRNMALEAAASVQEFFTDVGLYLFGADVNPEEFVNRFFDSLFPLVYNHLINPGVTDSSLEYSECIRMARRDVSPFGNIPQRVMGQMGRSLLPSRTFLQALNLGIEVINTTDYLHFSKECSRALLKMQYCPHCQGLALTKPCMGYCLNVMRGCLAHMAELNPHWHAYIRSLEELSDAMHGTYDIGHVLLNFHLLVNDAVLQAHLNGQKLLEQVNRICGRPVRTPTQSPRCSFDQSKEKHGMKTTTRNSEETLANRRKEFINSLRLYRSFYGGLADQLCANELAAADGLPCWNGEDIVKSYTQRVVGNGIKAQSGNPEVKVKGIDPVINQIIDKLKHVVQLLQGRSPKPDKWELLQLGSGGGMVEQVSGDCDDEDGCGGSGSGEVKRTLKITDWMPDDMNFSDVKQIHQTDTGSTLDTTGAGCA

T2: recombinant human GPC1 (rhGPC1) (human, UniProt P35052 24-530, limits assumed)
T2 sequence (looked up): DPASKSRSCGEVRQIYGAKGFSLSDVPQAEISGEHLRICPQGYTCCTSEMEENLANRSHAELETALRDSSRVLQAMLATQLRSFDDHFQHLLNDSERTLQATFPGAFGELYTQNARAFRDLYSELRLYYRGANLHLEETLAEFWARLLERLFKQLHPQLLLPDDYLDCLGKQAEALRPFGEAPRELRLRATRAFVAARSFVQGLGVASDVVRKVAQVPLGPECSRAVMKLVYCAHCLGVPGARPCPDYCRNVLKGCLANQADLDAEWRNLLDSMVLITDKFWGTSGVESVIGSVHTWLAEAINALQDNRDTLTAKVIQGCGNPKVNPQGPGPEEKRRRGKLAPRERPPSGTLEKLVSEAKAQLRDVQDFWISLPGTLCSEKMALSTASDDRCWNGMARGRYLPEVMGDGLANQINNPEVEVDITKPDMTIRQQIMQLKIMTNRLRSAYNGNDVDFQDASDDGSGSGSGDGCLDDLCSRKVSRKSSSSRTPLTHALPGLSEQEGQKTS

T3: recombinant human GPC6 (rhGPC6) (human, UniProt Q9Y625 24-529, limits assumed)
T3 sequence (looked up): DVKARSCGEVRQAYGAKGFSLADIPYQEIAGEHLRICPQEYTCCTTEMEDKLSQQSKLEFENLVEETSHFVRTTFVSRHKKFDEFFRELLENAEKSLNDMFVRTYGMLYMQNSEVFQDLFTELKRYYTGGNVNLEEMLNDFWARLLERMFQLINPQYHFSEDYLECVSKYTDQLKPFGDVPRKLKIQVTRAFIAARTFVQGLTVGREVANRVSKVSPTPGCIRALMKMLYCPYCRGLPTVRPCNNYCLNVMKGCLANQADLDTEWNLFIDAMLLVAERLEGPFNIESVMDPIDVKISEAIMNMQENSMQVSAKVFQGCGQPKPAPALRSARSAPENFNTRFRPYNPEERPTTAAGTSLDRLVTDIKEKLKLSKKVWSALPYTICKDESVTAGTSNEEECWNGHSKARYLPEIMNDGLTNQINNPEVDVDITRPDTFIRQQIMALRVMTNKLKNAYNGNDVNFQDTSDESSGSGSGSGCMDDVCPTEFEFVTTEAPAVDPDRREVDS

T4: recombinant human GPC2 (rhGPC2) (human, UniProt Q8N158 24-554, limits assumed)
T4 sequence (looked up): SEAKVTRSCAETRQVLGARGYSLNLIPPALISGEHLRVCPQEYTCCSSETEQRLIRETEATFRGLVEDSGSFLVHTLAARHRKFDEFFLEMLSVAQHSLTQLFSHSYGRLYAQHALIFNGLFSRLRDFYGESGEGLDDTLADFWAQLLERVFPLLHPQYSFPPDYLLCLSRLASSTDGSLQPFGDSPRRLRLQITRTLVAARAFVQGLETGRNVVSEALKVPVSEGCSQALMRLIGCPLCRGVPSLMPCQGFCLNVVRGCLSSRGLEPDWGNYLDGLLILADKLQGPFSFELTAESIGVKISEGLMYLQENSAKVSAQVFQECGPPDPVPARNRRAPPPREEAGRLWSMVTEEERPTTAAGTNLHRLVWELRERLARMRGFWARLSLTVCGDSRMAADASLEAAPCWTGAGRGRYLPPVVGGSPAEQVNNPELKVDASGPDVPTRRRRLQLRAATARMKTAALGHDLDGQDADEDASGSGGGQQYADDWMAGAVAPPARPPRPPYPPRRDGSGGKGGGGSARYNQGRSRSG


What was measured:
[1] = biological target: T5, human GPC3 recombinant protein (purchased from Shanghai Rui Jin Biotechnology Co., Ltd.) (human, UniProt P51654 25-559, limits assumed); test: SPR Biacore T200, antibody captured by anti-human IgG (Fc), GPC3 as analyte, single-cycle kinetics, 25 °C
T5 construct: Bought recombinant protein; also called huGPC3; antigen GPC3
Description: To quantitatively analyze the binding of P7D4 series antibodies to GPC3, the affinity and kinetic parameters of P7D4 series single-chain antibodies were measured by capture method using Biacore T200 system (from GE). An anti-human IgG (Fc) antibody (purchased from GE) was coupled to carboxymethyl dextran surface of sensor chip CM5 through primary amino with NHS/EDC coupling according to the manufacturer's instructions. Measurements were performed in 1×HBS-EP+working buffer at 25° C., 30 μl/min, and regeneration condition was 3 M MgCl₂, 10 μl/min for 30 seconds. In each round of the testing cycle, the antibody to be tested is firstly captured onto the chip. GPC3 of a certain concentration flowed over the chip surface. The interaction between human GPC3 and the captured antibody caused the change of the molecular concentration on the surface of the sensor chip which was measured according to changes in SPR Signal and expressed in resonance units (RU). Time vs resonance unit (RU) was plotted. The resulting sensorgram documents the entire reaction including the binding and dissociation processes (FIG. 4). In all single-cycle kinetics, GPC3 concentrations were 5 nM, 10 nM, 20 nM, 40 nM and 80 nM, respectively. The resulting curves were evaluated using Biacore T200 evaluation software and the affinity KD values were calculated.

[2] = biological target: T1, recombinant human GPC5 (rhGPC5); test: ELISA, antigen coated 100 ng/well, HRP anti-human Fc detection
Description: (§1) In order to analyze the binding specificity of P7D4 series antibody to GPC3 protein, binding activity of P7D4 series single chain antibody to human GPC family members, including recombinant human GPC1 (rhGPC1), GPC2 (rhGPC2), GPC3 (rhGPC3), GPC5 (rhGPC5) and GPC6 (rhGPC6) (purchased from Andy Biosciences (Shanghai) Co., Ltd.) was detected by ELISA, respectively.
(§2) For this purpose, the above 5 antigens were diluted with 0.1 M NaHCO₃ (pH 9.6) coating solution and each well was coated with 100 ng at 50 μl/well overnight at 4° C. and blocked with 2% (w/v) BSA in PBST for 2 hours at room temperature. The plate was then rinsed for three times with PBST and PBST was removed. Subsequently, 100 ng of each antibody protein in PBST was added to each well plate, and the assay for each sample was performed in duplecate wells. After incubated for 2 hours at 37° C., the plates were rinsed for three times with PBST followed by addition of 100 μl/well HRP-labeled rabbit anti-human Fc antibody (purchased from Shanghai Rui Jin Biotechnology Co., Ltd.) diluted at 1:20000 and incubated at 37° C. for 1 hour. For detection, wells were rinsed for three times with PBST followed by three times with PBS and finally with TMB for development for 10 min. The chromogenic reaction was stopped with 50 μl of 2 M H₂SO₄ per well, and extinction value was measured at 450 nm with enzyme-linked immunodetector (Bio-Rad).

[3] = biological target: T2, recombinant human GPC1 (rhGPC1); test: as above
Description: as §1, §2

[4] = biological target: T3, recombinant human GPC6 (rhGPC6); test: as above
Description: as §1, §2

[5] = biological target: T4, recombinant human GPC2 (rhGPC2); test: as above
Description: as §1, §2

Binder | Kd [1] | koff [1] | kon [1] | binding result [2] | binding result [3] | binding result [4] | binding result [5]
P7D4 mutant single chain antibody am4 (scFv, not shown: a dimerising Fc or GST) scFv: QVQLQESGGGLVQPGRSLRLSCAASGFTFSTYAMTWVRQAPGKGLEWVSSISSSGESTYYADSVKGRFTISRDNSKNTLYLQMNSLRAEDTAVYYCAKDRRGSHADAFDVWGQGTLVTVSSGGGGSGGGGSGGGGSQSALTQPPSASGSPGQSVTISCTGTSSDVGGYNYVSWYQQYPGKAPKLLIYGNSNRPSGVPDRFSGSKSGTSASLAITGLQAEDGADYYCQSYDSSLRVVFGGGTKVTVLG | 0.0756 nM | 4.08e-05 s⁻¹ | 539000 M⁻¹ s⁻¹ | no binding (tested: 100 ng of each antibody protein per well) | no binding (tested: 100 ng of each antibody protein per well) | no binding (tested: 100 ng of each antibody protein per well) | no binding (tested: 100 ng of each antibody protein per well)
P7D4 mutant single chain antibody T2-23 (scFv, not shown: a dimerising Fc or GST) scFv: QVQLQESGGGLVQPGRSLRLSCAASGFTFSSYAMHWVRQAPGKGLEWVSAISSSGRSTYYADSVEGRFTISRDNSKNTLYLQMNSLRAEDTAVYYCAKDRRGSHADALNVWGQGTLVTVSSGGGGSGGGGSGGGGSQSALTQPPSASGSPGQSVTISCTGTSSDVGGYNYVSWYQQYPGKAPKLLIYGNSNRPSGVPDRFSGSKSGTSASLAITGLQAEDGADYYCQSYDSSLRVVFGGGTKVTVLG |  |  |  | no binding (tested: 100 ng of each antibody protein per well) | no binding (tested: 100 ng of each antibody protein per well) | no binding (tested: 100 ng of each antibody protein per well) | no binding (tested: 100 ng of each antibody protein per well)
P7D4 mutant single chain antibody am14 (scFv, not shown: a dimerising Fc or GST) scFv: QVQLQESGGGLVQPGRSLRLSCAASGFTFSTYAMAWVRQAPGKGLEWVSEISSSGSRTYYADSVKGRFTISRDNSKNTLYLQMNSLRAEDTAVYYCAKDRRGSHADAFDVWGQGTLVTVSSGGGGSGGGGSGGGGSQSALTQPPSASGSPGQSVTISCTGTSSDVGGYNYVSWYQQYPGKAPKLLIYGNSNRPSGVPDRFSGSKSGTSASLAITGLQAEDGADYYCQSYDSSLRVVFGGGTKVTVLG | 0.0646 nM | 4.43e-05 s⁻¹ | 673000 M⁻¹ s⁻¹ | no binding (tested: 100 ng of each antibody protein per well) | no binding (tested: 100 ng of each antibody protein per well) | no binding (tested: 100 ng of each antibody protein per well) | no binding (tested: 100 ng of each antibody protein per well)
P7D4 mutant single chain antibody am20 (scFv, not shown: a dimerising Fc or GST) scFv: QVQLQESGGGLVQPGRSLRLSCAASGFTFSTYAMNWVRQAPGKGLEWVSAISMSGESTYYADSVKGRFTISRDNSKNTLYLQMNSLRAEDTAVYYCAKDRRGSHADAFDVWGQGTLVTVSSGGGGSGGGGSGGGGSQSALTQPPSASGSPGQSVTISCTGTSSDVGGYNYVSWYQQYPGKAPKLLIYGNSNRPSGVPDRFSGSKSGTSASLAITGLQAEDGADYYCQSYDSSLRVVFGGGTKVTVLG | 0.306 nM | 6.47e-05 s⁻¹ | 212000 M⁻¹ s⁻¹ | no binding (tested: 100 ng of each antibody protein per well) | no binding (tested: 100 ng of each antibody protein per well) | no binding (tested: 100 ng of each antibody protein per well) | no binding (tested: 100 ng of each antibody protein per well)
P7D4 mutant single chain antibody am35 (scFv, not shown: a dimerising Fc or GST) scFv: QVQLQESGGGLVQPGRSLRLSCAASGFTFSSYAMHWVRQAPGKGLEWVSAISSSGGSTYYADSVKGRFTISRDNSKNTLYLQMNSLRAEDTAVYYCAKDRRGSHADAFDVWGQGTLVTVSSGGGGSGGGGSGGGGSQSALTQPPSASGSPGQSVTISCTGTSSDVGHKFPVSWYQQYPGKAPKLLIYKNLLRPSGVPDRFSGSKSGTSASLAITGLQAEDGADYYCQSYDSSLRVVFGGGTKVTVLG | 0.0714 nM | 5.2e-05 s⁻¹ | 738000 M⁻¹ s⁻¹ | no binding (tested: 100 ng of each antibody protein per well) | no binding (tested: 100 ng of each antibody protein per well) | no binding (tested: 100 ng of each antibody protein per well) | no binding (tested: 100 ng of each antibody protein per well)

— US20240342305A1 (published 2024)
